Data as given in patent US7947648 (AEROVANCE, dated 2011).

What was measured:
[1] = biological target: T1, IL-4 receptor alpha chain (UniProt P24394 26-232, limits assumed); assay: cell-based or functional assay
T1 sequence (looked up): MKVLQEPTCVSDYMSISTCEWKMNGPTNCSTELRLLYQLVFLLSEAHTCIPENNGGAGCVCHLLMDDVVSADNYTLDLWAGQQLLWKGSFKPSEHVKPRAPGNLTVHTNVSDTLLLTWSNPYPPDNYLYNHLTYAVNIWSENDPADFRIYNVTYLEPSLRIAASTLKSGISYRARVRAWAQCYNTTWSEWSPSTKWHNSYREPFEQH

[2] = biological target: T1, IL-4 receptor alpha chain; assay: Biacore (SPR), IL-4 receptor α chain immobilized
[3] = biological target: T1, IL-4 receptor alpha chain; assay: Biacore (SPR), IL-4 receptor α chain immobilized; n = 7
[4] = biological target: T1, IL-4 receptor alpha chain; assay: Biacore assay, pre- and post-nebulized IL-4RA samples (Aeroneb Pro); no difference between them

B1: IL-4RA (mutant human IL-4 protein with the R121D/Y124D pair of substitutions) (ligand)
chain: MHKCDITLQEIIKTLNSLTEQKTLCTELTVTDIFAASKNTTEKETFCRAATVLRQFYSHHEKDTRCLGATAQQFHRHKQLIRFLKRLDRNLWGLAGLNSCPVKEANQSTLENFLERLKTIMDEKDSKCSS
notes: The entry may carry an N-terminal methionine; also called mhIL-4; IL-4 mutein
EC50, inhibition of IL-4-induced cell proliferation (TF-1/IL-4 proliferation assay), pre and post nebulization (Aeroneb Pro) [1]: 0.2 to 0.3 nM
IC50, TF-1 proliferation assay, post nebulization (Pari LC Plus) [1]: 0.483 nM
IC50, TF-1 proliferation assay, pre nebulization (Pari LC Plus) [1]: 0.459 nM
koff [2]: 0.0017 s⁻¹
kon [2]: 1.6e+07 M⁻¹ s⁻¹
Kd [3]: 0.14 nM
Kd [4]: ~0.1 nM
